Results taken from patent US20240026017A1 (Kyowa Kirin, published 2024).

T1: human CCR3 (human, UniProt P51677 1-355)
T1 construct: whole, on cells; also called hCCR3; CHO-S-hCCR3 (expressing cells)
T1 sequence (looked up): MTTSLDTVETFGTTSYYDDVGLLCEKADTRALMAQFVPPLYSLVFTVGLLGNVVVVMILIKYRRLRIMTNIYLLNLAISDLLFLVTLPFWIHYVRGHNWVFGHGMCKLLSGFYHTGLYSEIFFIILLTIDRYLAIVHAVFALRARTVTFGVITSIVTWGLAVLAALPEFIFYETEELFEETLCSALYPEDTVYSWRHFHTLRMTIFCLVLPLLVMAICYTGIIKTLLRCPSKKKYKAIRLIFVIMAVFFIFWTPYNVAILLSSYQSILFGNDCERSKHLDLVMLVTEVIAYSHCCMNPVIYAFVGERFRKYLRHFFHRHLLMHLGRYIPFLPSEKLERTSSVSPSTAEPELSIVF

T2: human CC chemokine receptor 1 (human CCR1) (human, UniProt P32246 1-355)
T2 sequence: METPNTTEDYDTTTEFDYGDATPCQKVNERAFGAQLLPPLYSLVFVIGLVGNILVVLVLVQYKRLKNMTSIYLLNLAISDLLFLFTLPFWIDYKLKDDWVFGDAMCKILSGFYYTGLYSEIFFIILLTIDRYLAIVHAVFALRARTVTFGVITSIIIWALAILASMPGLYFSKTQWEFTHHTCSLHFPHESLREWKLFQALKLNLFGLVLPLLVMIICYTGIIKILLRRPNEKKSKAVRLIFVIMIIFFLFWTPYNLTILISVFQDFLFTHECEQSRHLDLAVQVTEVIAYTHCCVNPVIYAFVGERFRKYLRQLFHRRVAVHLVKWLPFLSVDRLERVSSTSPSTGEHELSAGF

B1: KM5915 antibody (antibody, mouse IgG2b, V domains shown)
VH: EVQLVESGGDLVKPGGSLKLSCAASGFTFSNYGMSWVRQTPDKRLEWVASISIGSYIYYLDSVKGRFTIYRDNAKNTLFLQMRSLKSEDTAMYHCARQGNDYDWFAYWGQGTLVTVSA
VL: DVLMTQTPLSLPVSLGDQASISCRSSQNIVHTNGNTYLEWYLQKPGQSPKLLIYKVSNRFSGVPDRFSGSGSGTDFTLKISRVEAEDLGVYYCFQGSHLPWTFGGGTKLEIK
notes: mouse IgG2b from hybridoma
B2: KM5911 antibody (antibody, mouse IgG2b, V domains shown)
VH: DVKLVESGEGLVKPGGSLKLSCAASGFTFSRNAMSWVRQTPEKRMEWVAYISSGGDYIYYADTVKGRFTVSRDNARNTLYLRMSSLKSEDTAMYYCTRFSYGYAKNALDYWGQGTSVTVSS
VL: DIQMTQSPSSLSASLGGKVTITCKASQDIKKYIAWYQHKPGKGPRLLIHYTSSLQPGIPSRFSGSGSGRDYSFSISNLEPEDIATYYCLQYDYLMTFGGGTKLEIK
notes: mouse IgG2b from hybridoma
B3: KM5916 antibody (antibody, mouse IgG2b, V domains shown)
VH: DVKLVESGEGLVKPGGSLKLSCAASGFTFSRNAMSWVRQTPEKRLEWVAYISSGSDYIYYADTVKGRFTVSRDNARNTLYLQMTSLRSEDTAMYFCTRFSYGYGKNAPDYWGQGTSVTVSS
VL: DIQMTQSPSSLSASLGGKVTITCKASQDINKYIAWYQHKPGQGPRLLIHYTSSLQPGIPSRFSGSGSGRDYSFSISNLEPEDIATYYCLQYDYTMTFGGGTKLEIR
notes: mouse IgG2b from hybridoma
B4: hzKM5916 LV2HV0 antibody (antibody, V domains shown)
VH: QVQLQESGGGLVKPGGSLKLSCAASGFTFSRNAMSWVRQTPDKRLEWVAYISSGSDYIYYADTVKGRFTISRDNAKNTLYLQMSSLKSEDTAMYYCARFSYGYGKNAPDYWGQGTMVTVSS
VL: DIQMTQSPSSLSASVGDRVTITCKASQDINKYIAWYQHKPGKGPKLLIHYTSSLQPGVPSRFSGSGSGTDFSFTISSLQPEDLATYYCLQYDYTMTFGGGTKVEIK
B5: hzKM5907 LV2bHV3a antibody (antibody, V domains shown)
VH: EVQLLESGGGLVQPGGSLRLSCAASGFTFSRYGMSWVRQAPGKRLEWVSSISATFTYTYYTDNVKGRFTISRDNSKNTLYLQMNSLRAEDTGVYYCARQDNYAWFDSWGQGTLVTVSS
VL: DIVMTQTPLSLPVTSGEPVSISCRSSQSIVHSNGNTFLEWYLKKPGQSPQLLIYKVSSRFSGVPDRFSGSGSGTDFTLKISRVEAEDVGVYYCFQGSHIPWTFGGGTKVEIK
B6: hzmAb5-06 LV5HV14 antibody (antibody, V domains shown)
VH: QVQLQQSGPGLVKPSQTLSITCTVSGFSLNNYGVHWVRQPPGKGLEWLGVIWSAGTTVYNAAAISRLTISKDTSKNQVSFKMSSLTAADTAVYYCAKDGSRYYTAMDYWGQGTLVTVSS
VL: DVVMTQSPLSLPVTLGEPASISCRSSQSLVHRNGITFFHWYLQKPGQSPKLLIYKISNRFSGVPDRFSGSGSGTDFTLKISRVEAEDVGVYFCSQGTHVPPTFGQGTKLEIK

Target: T1, human CCR3
Assay: flow cytometry on CHO-S-hCCR3 cells, hybridoma culture supernatant diluted 10-fold
Excerpt: As test antibodies, each hybridoma culture supernatant diluted 10-fold, an existing mouse anti-human CCR1 monoclonal antibody 53504 antibody (R & D Technologies), and a mouse anti-human CCR3 monoclonal antibody 444-11 antibody (MBL) were used.
Regarding the measurement results, the fluorescence intensity when a certain cell was stained with a certain test antibody (each hybridoma culture supernatant, 53504 antibody or 444-11 antibody) and a secondary antibody was divided by the fluorescence intensity when the cell was stained only with the secondary antibody. […] In Table 2, the results are indicated as A and B, respectively.

| Binder | fluorescence intensity ratio (test antibody + secondary / secondary only) [fold] |
| --- | --- |
| B1 | < 10 |
| B2 | < 10 |
| B3 | < 10 |

Target: T2, human CC chemokine receptor 1 (human …)
Assay: cell-based or functional assay

| Binder | antibody concentration showing THP-1 migration inhibitory activity [µg/mL] |
| --- | --- |
| B4 | ≥ 0.3 |
| B5 | ≥ 0.3 |
| B6 | ≥ 0.3 |
